Biological target: human 4-1BB on Jurkat-hu4-1BB-NFκB-luc2 reporter cells (human) (UniProt Q07011)
Assay: cell-based or functional assay

human 4-1BB on Jurkat-hu4-1BB-NFκB-luc2 reporter cells (human), sequence (Q07011 24-255 limits assumed): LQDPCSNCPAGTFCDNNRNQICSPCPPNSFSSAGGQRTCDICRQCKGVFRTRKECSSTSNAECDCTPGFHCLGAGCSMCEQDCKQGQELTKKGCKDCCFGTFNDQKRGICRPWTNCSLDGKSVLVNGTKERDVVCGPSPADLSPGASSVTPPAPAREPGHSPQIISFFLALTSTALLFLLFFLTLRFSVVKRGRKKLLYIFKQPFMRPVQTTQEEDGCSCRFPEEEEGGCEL

EC50 of NFκB-luciferase activation in Jurkat-hu4-1BB-NFκB-luc2 cells with NIH/3T3-huFAP clone 19: 0.02 nM | area under the curve (AUC) of NFκB-luciferase activation in Jurkat-hu4-1BB-NFκB-luc2 cells with NIH/3T3-huFAP clone 19: 53500
Substance: 2+1 bispecific agonistic anti-4-1BB (20H4.9) x anti-FAP (4B9) huIgG1 P329GLALA antibody (bispecific antibody)

Reference: patent US20210324108A1
